Measured values taken from paper PMC4038622.

What was measured:
[1] = molecular target: VP4 spike protein, unprocessed precursor, porcine rotavirus strain OSU (clone OSU-C5111) (porcine rotavirus strain OSU) (UniProt P11114); assay: cryo-EM structure; single-particle three-dimensional reconstruction with icosahedral symmetry of vitrified purified virions (NTR-TLP and TR-TLP of strains SA11 and OSU), 200 kV; virions assembled in infected MA104 cells and purified in CsCl gradients; 11.9-15.4 Å (FSC 0.3)
[2] = molecular target: VP4 spike protein, unprocessed precursor, rotavirus strain SA11 (clone SA11-C4111) (simian rotavirus strain SA11); assay: as above

| Substance | stoichiometry N [1] | stoichiometry N [2] |
| --- | --- | --- |
| VP4 spike protein, unprocessed precursor, porcine rotavirus strain OSU (clone OSU-C5111) (from UniProt P11114 1-776) (natural protein) | 3 |  |
| VP4 spike protein, unprocessed precursor, rotavirus strain SA11 (clone SA11-C4111) (natural protein) |  | 3 |
